# Measured values from patent publication EP3470428A1 (Numab Innovation AG, dated 2019).
# Values joined by “and” are separate entries in the source; they are usually repeats but may differ in a detail not shown here. Identical values can stand only once. Like-named read-outs stand apart in the source and are kept apart here.
# B1: PRO951: 38-27-C05 sc02 scDb-i/33-03-G02 sc01 scDb-o (bispecific antibody)
# chain: DIQMTQSPSSLSASVGDRVTITCQASQSINDYLAWYQQKPGKAPKLLIYKASTLASGVPSRFSGSGSGTDFTLTISSLQPEDFATYYCQQGYIITDIDNVFGTGTKVTVLGGGGGSEVQLVESGGGLVQPGGSLRLSCAASGFSFNNDYDMCWVRQAPGKGLEWIGCIDTGDGSTYYASWAKGRFTISRDNSKNTVYLQMNSLRAEDTAVYYCAREAASSSGYGMGYFDLWGQGTLVTVSSGGGGSGGGGSGGGGSGGGGSIQMTQSPSSLSASVGDRVTITCQSSQSVYDNNWLAWYQQKPGKAPKLLIYRASNLASGVPSRFSGSGSGTDFTLTISSLQPEDFATYYCQGTYLSSNWYWAFGTGTKVTVLGGGGGSQVQLQESGPGLVKPSETLSLTCKVSGFSFSSGYDMCWIRQPPGKGLEWIGCVVAGSVDITYYASWAKGRVTISVDSSKNQFSLKLSSVTAADTAVYYCARKDAYSDAFNLWGQGTLVTVSS
# notes: anti-PD-L1xCD137 scDb
# B2: PRO885: 38-02-A04 sc01 scDb-i/33-03-G02 sc01 scDb-o (bispecific antibody)
# chain: DIQMTQSPSSLSASVGDRVTITCQASQSINDYLAWYQQKPGKAPKLLIYKASTLASGVPSRFSGSGSGTDFTLTISSLQPEDFATYYCQQGYIITDIDNVFGTGTKVTVLGGGGGSQVQLQESGPGLVKPSETLSLTCKVSGFSFSNSYWICWIRQPPGKGLEWIGCTFVGSSDSTYYANWAKGRVTISVDSSKNQFSLKLSSVTAADTAVYYCARHPSDAVYGYANNLWGQGTLVTVSSGGGGSGGGGSGGGGSGGGGSIQMTQSPSSLSASVGDRVTITCQASQSINNVLAWYQQKPGKAPKLLIYRASTLASGVPSRFSGSGSGTDFTLTISSLQPEDFATYYCQSSYGNYGDFGTGTKVTVLGGGGGSQVQLQESGPGLVKPSETLSLTCKVSGFSFSSGYDMCWIRQPPGKGLEWIGCVVAGSVDITYYASWAKGRVTISVDSSKNQFSLKLSSVTAADTAVYYCARKDAYSDAFNLWGQGTLVTVSS
# notes: anti-PD-L1xCD137 scDb, CDR grafts of both domains
# B3: PRO966 (= PRO1052): 38_27_C05 sc01 scDb-i/33-03-G02 sc01 scDb-o/19-01-H04-sc03 scFv (other)
# chain: DIQMTQSPSSLSASVGDRVTITCQASQSINDYLAWYQQKPGKAPKLLIYKASTLASGVPSRFSGSGSGTDFTLTISSLQPEDFATYYCQQGYIITDIDNVFGTGTKVTVLGGGGGSQVQLQESGPGLVKPSETLSLTCKVSGFSFNNDYDMCWIRQPPGKGLEWIGCIDTGDGSTYYASWAKGRVTISVDSSKNQFSLKLSSVTAADTAVYYCAREAASSSGYGMGYFDLWGQGTLVTVSSGGGGSGGGGSGGGGSGGGGSIQMTQSPSSLSASVGDRVTITCQSSQSVYDNNWLAWYQQKPGKAPKLLIYRASNLASGVPSRFSGSGSGTDFTLTISSLQPEDFATYYCQGTYLSSNWYWAFGTGTKVTVLGGGGGSQVQLQESGPGLVKPSETLSLTCKVSGFSFSSGYDMCWIRQPPGKGLEWIGCVVAGSVDITYYASWAKGRVTISVDSSKNQFSLKLSSVTAADTAVYYCARKDAYSDAFNLWGQGTLVTVSSGGGGSGGGGSIQMTQSPSSLSASVGDRVTITCQSSESVYSNNQLSWYQQKPGQPPKLLIYDASDLASGVPSRFSGSGSGTDFTLTISSLQPEDFATYYCAGGFSSSSDTAFGGGTKLTVLGGGGGSGGGGSGGGGSGGGGSEVQLVESGGGLVQPGGSLRLSCAASGFSLSSNAMGWVRQAPGKGLEYIGIISVGGFTYYASWAKGRFTISRDNSKNTVYLQMNSLRAEDTATYFCARDRHGGDSSGAFYLWGQGTLVTVSS
# notes: Trispecific scTriabody (scDb-scFv)
# B4: PRO997 (anti-PD-L1 scFv, CDR set of clone 37-20-B03 grafted on a VH4 framework) (scFv)
# chain: DIQMTQSPSSLSASVGDRVTITCQASQSIGTYLAWYQQKPGKAPKLLIYRAFILASGVPSRFSGSGSGTDFTLTISSLQPEDFATYYCQSNFYSDSTTIGPNAFGTGTKVTVLGGGGGSGGGGSGGGGSGGGGSQVQLQESGPGLVKPSETLSLTCKVSGFSFNSDYWIYWIRQPPGKGLEWIGSIYGGSSGNTQYASWAQGRVTISVDSSKNQFSLKLSSVTAADTAVYYCARGYVDYGGATDLWGQGTLVTVSS
# B5: Urelumab (antibody, V domains shown)
# VH: QVQLQQWGAGLLKPSETLSLTCAVYGGSFSGYYWSWIRQSPEKGLEWIGEINHGGYVTYNPSLESRVTISVDTSKNQFSLKLSSVTAADTAVYYCARDYGPGNYDWYFDLWGRGTLVTVSS
# VL: EIVLTQSPATLSLSPGERATLSCRASQSVSSYLAWYQQKPGQAPRLLIYDASNRATGIPARFSGSGSGTDFTLTISSLEPEDFAVYYCQQRSNWPPALTFGGGTKVEIK
# B6: PRO1058: 38_27_C05 sc01 scDb-i/33-03-G02 sc01 scDb-o/mxr HSA (23-13-A01-sc03, sk17sh4) (other)
# chain: DIQMTQSPSSLSASVGDRVTITCQASQSINDYLAWYQQKPGKAPKLLIYKASTLASGVPSRFSGSGSGTDFTLTISSLQPEDFATYYCQQGYIITDIDNVFGTGTKVTVLGGGGGSQVQLQESGPGLVKPSETLSLTCKVSGFSFNNDYDMCWIRQPPGKGLEWIGCIDTGDGSTYYASWAKGRVTISVDSSKNQFSLKLSSVTAADTAVYYCAREAASSSGYGMGYFDLWGQGTLVTVSSGGGGSGGGGSGGGGSGGGGSIQMTQSPSSLSASVGDRVTITCQSSQSVYDNNWLAWYQQKPGKAPKLLIYRASNLASGVPSRFSGSGSGTDFTLTISSLQPEDFATYYCQGTYLSSNWYWAFGTGTKVTVLGGGGGSQVQLQESGPGLVKPSETLSLTCKVSGFSFSSGYDMCWIRQPPGKGLEWIGCVVAGSVDITYYASWAKGRVTISVDSSKNQFSLKLSSVTAADTAVYYCARKDAYSDAFNLWGQGTLVTVSSGGGGSGGGGSVVMTQSPSSLSASVGDRVTITCQASQIISSRSAWYQQKPGQPPKLLIYQASKLASGVPSRFSGSGSGTDFTLTISSLQPEDFATYYCQCTYIDSNFGAFGGGTKLTVLGGGGGSGGGGSGGGGSGGGGSEVQLVESGGGLVQPGGSLRLSCAASGFSFSSSYWICWVRQAPGKGLEWVGCVFTGDGTTYYASWAKGRFTISRDNSKNTVYLQMNSLRAEDTATYFCARPVSVYYYGMDLWGQGTLVTVSS
# notes: as for B3
# Legend:
# biotinylated human PD-L1 [1] = molecular target: T1, biotinylated human PD-L1 (human, UniProt Q9NZQ7 19-238, limits assumed, biotinylated); experiment: competition ELISA; coated human B7.1 as competitor; biotinylated PD-L1 pre-incubated with inhibitor
# T1 construct: also called biotinylated PD-L1
# [2] = molecular target: T2, human CD137 expressed on cells (human, UniProt Q07011 24-255); experiment: cell-based or functional assay
# [3] = molecular target: T2, human CD137 expressed on cells; experiment: cell-based or functional assay; remark: listed apart in the source
# biotinylated human PD-L1 [4] = molecular target: T1, biotinylated human PD-L1; experiment: competition ELISA; coated human PD-1 as competitor; biotinylated human PD-L1 pre-incubated with inhibitor
# [5] = molecular target: T3, human PD-L1 expressed on cells (human, UniProt Q9NZQ7 19-290); experiment: cell-based or functional assay
# [6] = molecular target: T2, human CD137 expressed on cells; experiment: cell-based or functional assay; remark: listed apart in the source
# [7] = molecular target: T2, human CD137 expressed on cells; experiment: cell-based or functional assay; remark: listed apart in the source
# [8] = molecular target: T2, human CD137 expressed on cells; experiment: cell-based or functional assay; remark: listed apart in the source
# [9] = molecular target: T2, human CD137 expressed on cells; experiment: cell-based or functional assay; remark: listed apart in the source
# [10] = molecular target: T2, human CD137 expressed on cells; experiment: cell-based or functional assay; remark: listed apart in the source
# [11] = molecular target: T2, human CD137 expressed on cells; experiment: cell-based or functional assay; remark: listed apart in the source
# [12] = molecular target: T2, human CD137 expressed on cells; experiment: cell-based or functional assay; remark: listed apart in the source
# [13] = molecular target: T2, human CD137 expressed on cells; experiment: cell-based or functional assay; remark: listed apart in the source
# human serum albumin = molecular target: T4, human serum albumin (human, UniProt P02768 25-609); experiment: SPR (Biacore T200); SA amine-coupled; pH 5.5
# T4 construct: Amine-coupled to a CM5 chip; assay at pH 5.5; also called HSA; human SA
# [14] = molecular target: human PD-L1-Fc chimeric protein (human, UniProt Q9NZQ7 19-239); experiment: SPR (Biacore T200); PD-L1-Fc captured by anti-human Fc
# [15] = molecular target: T3, human PD-L1 expressed on cells; experiment: cell-based or functional assay; remark: listed apart in the source
Binder,IC50 (biotinylated human PD-L1 [1]),"EC50 in ng/ml, CD137 activation, NFkB-luciferase Jurkat reporter assay, CHO-PD-L1 cells [2]","max. activation (%), NF-kB reporter gene, CHO-PD-L1; HSA: no [3]",IC50 (biotinylated human PD-L1 [4]),"IC50 (ng/ml), neutralization of PD-L1/PD-1 interaction, NFAT-luciferase reporter gene assay [5]","EC50 in ng/ml, CD137 activation, NFkB-luciferase Jurkat reporter assay, CHO-PD-L1 cells [6]","EC50 in ng/ml, CD137 activation, NFkB-luciferase Jurkat reporter assay, HCC827 cells stimulated with IFNg [7]","EC50 in ng/ml, CD137 activation, NFkB-luciferase Jurkat reporter assay, HCC827 cells without IFNg [8]","EC50 in ng/ml, CD137 activation, NFkB-luciferase Jurkat reporter assay, PD-L1 expressing CHO cells, 24h [9]","EC50 in ng/ml, CD137 activation, NFkB-luciferase Jurkat reporter assay, PD-L1 expressing CHO cells, 24h, + HSA [9]","EC50 in ng/ml, CD137 activation, NFkB-luciferase Jurkat reporter assay, PD-L1 expressing CHO cells, 6h [10]","EC50 in ng/ml, CD137 activation, NFkB-luciferase Jurkat reporter assay, PD-L1 expressing CHO cells, 6h, + HSA [10]","EC50 in ng/ml, CD137 activation, NFkB-luciferase Jurkat reporter assay, HCC827 with IFNy stimulation, 24h [13]","EC50 in ng/ml, CD137 activation, NFkB-luciferase Jurkat reporter assay, HCC827 without IFNy stimulation, 24h [13]",binding result (human serum albumin),binding result [14],other results
B1,9.3 ng/mL,33.7 ng/mL,432%,9.5 ng/mL,88.5 ng/mL,,,,,,,,,,,,
B2,12.2 ng/mL,11.7 ng/mL,499%,8.35 ng/mL,137 ng/mL,5.13 ng/mL and 4.86 ng/mL and 6.3 ng/mL,9.27 ng/mL and 8.88 ng/mL and 9.23 ng/mL,11.5 ng/mL and 13.1 ng/mL and 13 ng/mL,13.8 ng/mL,14.8 ng/mL,7.84 ng/mL,7.92 ng/mL,7.51 ng/mL,9.52 ng/mL,,,"max. activation (%), NF-kB reporter gene, HCC827 +IFNg; HSA: no [3]: 134%; max. activation (%), NF-kB reporter gene, HCC827 -IFNg; HSA: no [3]: 111%; EC50 in ng/ml, IL-2 secretion, PBMC stimulated with SEA [11]: 39.9 ng/mL; EC50 (ng/ml), IL-2 secretion by PBMC; anti-CD3 1 ug/ml, 50000 PD-L1 expressing CHO cells/well [12]: 12.8 ng/mL; EC50 (ng/ml), IL-2 secretion by PBMC; anti-CD3 1 ug/ml, 100000 PD-L1 expressing CHO cells/well [12]: 86.2 ng/mL; EC50 (ng/ml), IL-2 secretion by PBMC; anti-CD3 1 ug/ml, 200000 PD-L1 expressing CHO cells/well [12]: 80.6 ng/mL; EC50 (ng/ml), IL-2 secretion by PBMC; anti-CD3 2 ug/ml, 50000 PD-L1 expressing CHO cells/well [12]: 52 ng/mL; EC50 (ng/ml), IL-2 secretion by PBMC; anti-CD3 2 ug/ml, 100000 PD-L1 expressing CHO cells/well [12]: 41.9 ng/mL; EC50 (ng/ml), IL-2 secretion by PBMC; anti-CD3 2 ug/ml, 200000 PD-L1 expressing CHO cells/well [12]: 30.1 ng/mL"
B3,,,,,,,,,,,,,,,binds,binds,
B4,6.36 ng/mL,,,0.5 ng/mL,11.1 ng/mL,,,,,,,,,,,,"fold higher affinity against the STR graft of clone 33-03-G02 [14]: ~2 fold; EC50 in ng/ml, IL-2 secretion, PBMC stimulated with SEA [15]: 40.9 ng/mL"
B5,,79.1 ng/mL,,,,79.5 ng/mL and 104 ng/mL and 86.5 ng/mL,114 ng/mL and 145 ng/mL and 108 ng/mL,212 ng/mL and 110 ng/mL and 112 ng/mL,46.6 ng/mL,78.2 ng/mL,56.5 ng/mL,77.7 ng/mL,52.8 ng/mL,47.5 ng/mL,,,
B6,,,,,,,,,,121 ng/mL,,70.9 ng/mL,,,binds,binds,"max. activation (%), NF-kB reporter gene, CHO-PD-L1; HSA: yes, 24h [3]: 36.2%"
